In the assay the target is human ILT4-HIS. Description: BLI (Octet). In general terms: Biolayer interferometry detects binding as a change in optical thickness at a sensor tip.

Four molecules from patent publication US20240417459A1 (published 2024) can be followed below.

B1: 9H9-7A3 LH (bispecific antibody)
heavy: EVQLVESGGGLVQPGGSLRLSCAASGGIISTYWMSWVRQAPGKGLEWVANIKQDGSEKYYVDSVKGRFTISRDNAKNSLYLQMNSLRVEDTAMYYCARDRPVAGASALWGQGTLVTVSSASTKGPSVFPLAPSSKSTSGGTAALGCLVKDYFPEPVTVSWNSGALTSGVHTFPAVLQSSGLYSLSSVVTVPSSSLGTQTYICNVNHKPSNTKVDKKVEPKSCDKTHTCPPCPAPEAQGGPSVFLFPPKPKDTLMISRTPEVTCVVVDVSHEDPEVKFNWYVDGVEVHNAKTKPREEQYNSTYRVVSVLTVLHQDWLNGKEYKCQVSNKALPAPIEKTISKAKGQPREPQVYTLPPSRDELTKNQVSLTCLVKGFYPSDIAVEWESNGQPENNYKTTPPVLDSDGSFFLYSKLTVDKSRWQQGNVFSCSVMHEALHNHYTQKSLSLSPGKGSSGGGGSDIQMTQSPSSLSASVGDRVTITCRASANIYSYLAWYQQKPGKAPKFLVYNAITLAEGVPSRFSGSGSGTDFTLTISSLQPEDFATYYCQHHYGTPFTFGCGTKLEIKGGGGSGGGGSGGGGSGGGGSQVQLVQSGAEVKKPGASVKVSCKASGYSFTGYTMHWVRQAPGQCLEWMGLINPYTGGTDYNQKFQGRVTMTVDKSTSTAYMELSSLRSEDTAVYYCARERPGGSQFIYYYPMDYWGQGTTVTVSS
light: DIQMTQSPSTLSASVGDRVTITCRASQSISGWLAWYQQKPGKAPKLLIYKASSLESGVPSRFSGSGSGTEFTLTISSLQPDDFATYYCQQYYGSSRTFGQGTNVEIKRTVAAPSVFIFPPSDEQLKSGTASVVCLLNNFYPREAKVQWKVDNALQSGNSQESVTEQDSKDSTYSLSSTLTLSKADYEKHKVYACEVTHQGLSSPVTKSFNRGEC
Take B1: binding was characterised by a dissociation constant (Kd) of 0.282 nM.

B2: 9H9-7A3 HL (bispecific antibody)
heavy: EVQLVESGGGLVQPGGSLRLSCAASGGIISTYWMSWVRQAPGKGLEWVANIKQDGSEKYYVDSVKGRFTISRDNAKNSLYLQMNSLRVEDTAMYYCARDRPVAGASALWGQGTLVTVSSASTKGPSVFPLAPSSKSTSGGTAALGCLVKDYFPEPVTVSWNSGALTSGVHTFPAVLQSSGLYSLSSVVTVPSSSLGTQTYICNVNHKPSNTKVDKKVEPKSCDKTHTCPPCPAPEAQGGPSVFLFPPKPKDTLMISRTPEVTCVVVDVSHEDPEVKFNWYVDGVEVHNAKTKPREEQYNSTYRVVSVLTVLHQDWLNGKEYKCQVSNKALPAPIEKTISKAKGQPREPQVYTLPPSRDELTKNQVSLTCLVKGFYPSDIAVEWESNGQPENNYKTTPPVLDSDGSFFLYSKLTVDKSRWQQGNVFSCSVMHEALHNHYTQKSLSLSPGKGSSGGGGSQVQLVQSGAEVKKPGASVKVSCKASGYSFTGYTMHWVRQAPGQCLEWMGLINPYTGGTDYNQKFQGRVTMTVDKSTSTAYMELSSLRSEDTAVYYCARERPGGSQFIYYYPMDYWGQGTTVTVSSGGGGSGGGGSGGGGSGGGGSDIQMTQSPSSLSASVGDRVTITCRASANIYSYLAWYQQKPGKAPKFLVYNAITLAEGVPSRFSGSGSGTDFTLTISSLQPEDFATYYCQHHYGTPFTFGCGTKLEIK
light: B1 light
Regarding B2, the equilibrium dissociation constant (Kd) was 0.308 nM.

B3: 9H9-7B1 HL (bispecific antibody)
heavy: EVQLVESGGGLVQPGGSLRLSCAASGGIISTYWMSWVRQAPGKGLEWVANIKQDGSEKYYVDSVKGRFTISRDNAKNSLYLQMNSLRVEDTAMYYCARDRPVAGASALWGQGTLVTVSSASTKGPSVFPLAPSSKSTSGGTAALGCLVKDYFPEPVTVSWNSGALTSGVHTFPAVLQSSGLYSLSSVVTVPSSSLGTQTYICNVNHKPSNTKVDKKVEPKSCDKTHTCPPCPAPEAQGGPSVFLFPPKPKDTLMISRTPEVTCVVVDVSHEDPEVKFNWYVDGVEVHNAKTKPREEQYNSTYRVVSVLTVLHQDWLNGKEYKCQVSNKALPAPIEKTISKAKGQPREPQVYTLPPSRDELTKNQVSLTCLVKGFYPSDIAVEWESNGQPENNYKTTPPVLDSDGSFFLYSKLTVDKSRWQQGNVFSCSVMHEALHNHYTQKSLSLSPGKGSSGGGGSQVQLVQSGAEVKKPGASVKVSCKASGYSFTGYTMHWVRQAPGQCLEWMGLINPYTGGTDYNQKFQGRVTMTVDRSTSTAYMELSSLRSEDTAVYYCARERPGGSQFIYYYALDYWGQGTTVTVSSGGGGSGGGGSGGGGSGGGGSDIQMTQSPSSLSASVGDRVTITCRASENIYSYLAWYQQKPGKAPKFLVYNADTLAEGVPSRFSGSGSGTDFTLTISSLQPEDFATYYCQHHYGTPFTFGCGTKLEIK
light: B1 light
B3 had a Kd of 0.139 nM.

B4: 9H9-7B1 LH (bispecific antibody)
heavy: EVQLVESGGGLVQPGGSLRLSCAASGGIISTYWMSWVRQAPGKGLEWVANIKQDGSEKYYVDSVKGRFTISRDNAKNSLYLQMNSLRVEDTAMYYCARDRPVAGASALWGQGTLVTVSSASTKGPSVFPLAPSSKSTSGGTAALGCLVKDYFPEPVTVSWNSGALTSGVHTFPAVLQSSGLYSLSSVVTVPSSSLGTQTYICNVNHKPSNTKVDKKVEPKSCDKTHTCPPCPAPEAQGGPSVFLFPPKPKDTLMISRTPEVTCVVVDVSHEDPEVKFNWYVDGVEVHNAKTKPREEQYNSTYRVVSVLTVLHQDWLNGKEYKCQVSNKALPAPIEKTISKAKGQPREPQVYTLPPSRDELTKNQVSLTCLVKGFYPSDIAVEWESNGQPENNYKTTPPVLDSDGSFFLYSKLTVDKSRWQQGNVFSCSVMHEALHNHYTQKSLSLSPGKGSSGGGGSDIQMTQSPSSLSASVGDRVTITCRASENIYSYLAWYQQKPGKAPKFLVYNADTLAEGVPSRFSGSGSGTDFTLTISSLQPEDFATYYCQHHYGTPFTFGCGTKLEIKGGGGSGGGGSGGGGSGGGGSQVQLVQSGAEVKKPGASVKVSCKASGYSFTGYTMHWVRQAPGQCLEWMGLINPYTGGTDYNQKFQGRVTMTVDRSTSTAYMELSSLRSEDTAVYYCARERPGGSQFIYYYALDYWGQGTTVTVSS
light: B1 light
Molecule B4 came in with a Kd of 0.056 nM.

Usually Kd stands for the equilibrium constant for the complex coming apart.
